Data: the supplement of paper PMC10065799, “High-throughput profiling of sequence recognition by tyrosine kinases and SH2 domains using bacterial peptide display” (eLife, 2023)

How the values were obtained:
[1] = test system: AncSZ; experiment: phosphorylation enrichment, bacterial display (enrichment ratio); higher = better substrate or ligand; peptides without Tyr show the background
[2] = test system: c-Src; experiment: as above
[3] = target: MERTK (UniProt Q12866); experiment: as above
[4] = target: EPHB2 (UniProt P29323); experiment: as above
[5] = target: Hck (UniProt P08631); experiment: as above
Chain of Hck (P08631 whole entry, looked up): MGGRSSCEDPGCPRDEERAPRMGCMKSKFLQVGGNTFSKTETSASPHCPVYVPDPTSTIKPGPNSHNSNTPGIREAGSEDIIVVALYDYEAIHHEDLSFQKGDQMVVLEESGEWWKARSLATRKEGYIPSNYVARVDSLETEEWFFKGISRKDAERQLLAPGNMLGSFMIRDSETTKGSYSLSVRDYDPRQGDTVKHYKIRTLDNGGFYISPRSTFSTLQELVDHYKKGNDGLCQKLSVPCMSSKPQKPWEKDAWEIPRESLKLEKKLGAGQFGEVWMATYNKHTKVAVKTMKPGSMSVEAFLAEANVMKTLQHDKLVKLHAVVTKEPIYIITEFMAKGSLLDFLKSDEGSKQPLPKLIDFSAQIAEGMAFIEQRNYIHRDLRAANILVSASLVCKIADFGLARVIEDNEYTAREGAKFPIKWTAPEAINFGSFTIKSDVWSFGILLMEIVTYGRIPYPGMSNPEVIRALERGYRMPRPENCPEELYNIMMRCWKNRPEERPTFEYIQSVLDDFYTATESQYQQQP

[6] = target: FGFR3 (UniProt P22607); experiment: as above
Chain of FGFR3 (P22607 whole entry, looked up): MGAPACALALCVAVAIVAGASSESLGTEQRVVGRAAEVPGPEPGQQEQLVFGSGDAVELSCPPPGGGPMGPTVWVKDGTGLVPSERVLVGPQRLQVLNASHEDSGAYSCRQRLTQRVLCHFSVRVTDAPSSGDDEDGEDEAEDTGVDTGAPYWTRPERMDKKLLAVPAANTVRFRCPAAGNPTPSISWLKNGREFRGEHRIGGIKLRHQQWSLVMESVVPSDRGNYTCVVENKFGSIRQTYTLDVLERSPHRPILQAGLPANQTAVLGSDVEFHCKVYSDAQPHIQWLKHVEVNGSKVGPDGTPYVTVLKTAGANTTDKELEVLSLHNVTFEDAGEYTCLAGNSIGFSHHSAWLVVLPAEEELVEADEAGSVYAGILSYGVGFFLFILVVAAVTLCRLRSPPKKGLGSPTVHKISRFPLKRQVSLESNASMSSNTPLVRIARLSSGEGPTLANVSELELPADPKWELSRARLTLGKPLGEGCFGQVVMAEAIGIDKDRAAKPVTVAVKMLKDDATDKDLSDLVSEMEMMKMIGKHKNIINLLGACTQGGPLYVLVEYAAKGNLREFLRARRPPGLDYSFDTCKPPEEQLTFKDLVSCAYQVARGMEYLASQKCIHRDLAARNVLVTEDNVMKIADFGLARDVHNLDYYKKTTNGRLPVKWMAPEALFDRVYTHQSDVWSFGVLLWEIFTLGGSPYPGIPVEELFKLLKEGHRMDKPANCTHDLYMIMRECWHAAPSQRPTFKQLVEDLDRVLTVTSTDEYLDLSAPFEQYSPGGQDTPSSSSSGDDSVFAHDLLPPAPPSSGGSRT

[7] = target: Fes (UniProt P07332); experiment: as above
Chain of Fes (P07332 whole entry, looked up): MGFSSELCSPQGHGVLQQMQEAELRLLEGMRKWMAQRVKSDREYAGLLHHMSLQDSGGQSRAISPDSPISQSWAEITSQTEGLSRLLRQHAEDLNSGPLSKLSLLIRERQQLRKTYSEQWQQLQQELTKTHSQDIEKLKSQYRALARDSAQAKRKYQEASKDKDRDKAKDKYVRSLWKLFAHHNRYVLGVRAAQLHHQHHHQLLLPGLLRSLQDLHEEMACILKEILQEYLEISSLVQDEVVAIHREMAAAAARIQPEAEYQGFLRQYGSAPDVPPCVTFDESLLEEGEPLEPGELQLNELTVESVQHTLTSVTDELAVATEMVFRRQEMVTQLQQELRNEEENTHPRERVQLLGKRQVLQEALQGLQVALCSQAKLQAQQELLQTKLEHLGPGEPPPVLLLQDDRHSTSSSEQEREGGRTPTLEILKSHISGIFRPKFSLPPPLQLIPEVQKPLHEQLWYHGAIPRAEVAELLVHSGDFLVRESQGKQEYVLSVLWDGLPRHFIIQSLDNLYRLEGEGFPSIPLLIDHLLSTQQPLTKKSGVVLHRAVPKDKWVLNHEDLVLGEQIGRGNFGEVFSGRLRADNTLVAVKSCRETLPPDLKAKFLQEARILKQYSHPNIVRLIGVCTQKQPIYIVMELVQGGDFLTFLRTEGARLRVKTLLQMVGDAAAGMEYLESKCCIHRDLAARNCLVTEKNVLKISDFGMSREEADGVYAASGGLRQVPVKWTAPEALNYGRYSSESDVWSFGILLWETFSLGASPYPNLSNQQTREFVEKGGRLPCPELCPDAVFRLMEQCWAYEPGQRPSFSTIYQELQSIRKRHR

[8] = test system: c-Abl (mouse); experiment: as above
[9] = target: Jak2 (UniProt O60674); experiment: as above
Chain of Jak2 (O60674 whole entry, looked up): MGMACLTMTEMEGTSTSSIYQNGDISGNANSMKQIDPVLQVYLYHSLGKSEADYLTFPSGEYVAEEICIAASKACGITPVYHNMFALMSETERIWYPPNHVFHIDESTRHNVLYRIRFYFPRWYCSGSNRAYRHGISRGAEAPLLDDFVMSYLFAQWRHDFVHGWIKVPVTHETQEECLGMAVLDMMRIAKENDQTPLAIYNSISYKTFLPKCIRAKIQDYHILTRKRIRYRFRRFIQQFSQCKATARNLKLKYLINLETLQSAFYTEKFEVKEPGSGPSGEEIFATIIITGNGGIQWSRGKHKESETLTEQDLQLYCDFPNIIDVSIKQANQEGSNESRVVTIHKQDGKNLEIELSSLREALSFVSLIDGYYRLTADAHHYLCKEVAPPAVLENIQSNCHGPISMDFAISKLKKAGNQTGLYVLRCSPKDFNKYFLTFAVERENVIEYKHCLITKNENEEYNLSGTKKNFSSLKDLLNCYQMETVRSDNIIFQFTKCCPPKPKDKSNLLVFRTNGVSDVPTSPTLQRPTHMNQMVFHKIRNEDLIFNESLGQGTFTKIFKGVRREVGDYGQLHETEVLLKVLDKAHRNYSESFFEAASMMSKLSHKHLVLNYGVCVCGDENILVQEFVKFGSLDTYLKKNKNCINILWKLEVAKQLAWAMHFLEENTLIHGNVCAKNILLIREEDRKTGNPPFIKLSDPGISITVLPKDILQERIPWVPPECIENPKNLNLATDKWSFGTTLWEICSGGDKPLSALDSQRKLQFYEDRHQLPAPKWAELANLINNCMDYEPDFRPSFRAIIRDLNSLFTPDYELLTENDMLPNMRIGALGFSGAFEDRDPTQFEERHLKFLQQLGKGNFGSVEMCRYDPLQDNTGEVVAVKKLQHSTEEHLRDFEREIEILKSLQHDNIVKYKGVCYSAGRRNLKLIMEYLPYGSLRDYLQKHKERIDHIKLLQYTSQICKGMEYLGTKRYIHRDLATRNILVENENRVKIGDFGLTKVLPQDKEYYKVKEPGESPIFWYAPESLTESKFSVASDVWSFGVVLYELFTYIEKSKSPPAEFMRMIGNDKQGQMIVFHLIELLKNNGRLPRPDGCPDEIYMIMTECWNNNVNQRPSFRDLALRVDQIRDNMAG

[10] = target: Fyn (UniProt P06241); experiment: as above
Chain of Fyn (P06241 whole entry, looked up): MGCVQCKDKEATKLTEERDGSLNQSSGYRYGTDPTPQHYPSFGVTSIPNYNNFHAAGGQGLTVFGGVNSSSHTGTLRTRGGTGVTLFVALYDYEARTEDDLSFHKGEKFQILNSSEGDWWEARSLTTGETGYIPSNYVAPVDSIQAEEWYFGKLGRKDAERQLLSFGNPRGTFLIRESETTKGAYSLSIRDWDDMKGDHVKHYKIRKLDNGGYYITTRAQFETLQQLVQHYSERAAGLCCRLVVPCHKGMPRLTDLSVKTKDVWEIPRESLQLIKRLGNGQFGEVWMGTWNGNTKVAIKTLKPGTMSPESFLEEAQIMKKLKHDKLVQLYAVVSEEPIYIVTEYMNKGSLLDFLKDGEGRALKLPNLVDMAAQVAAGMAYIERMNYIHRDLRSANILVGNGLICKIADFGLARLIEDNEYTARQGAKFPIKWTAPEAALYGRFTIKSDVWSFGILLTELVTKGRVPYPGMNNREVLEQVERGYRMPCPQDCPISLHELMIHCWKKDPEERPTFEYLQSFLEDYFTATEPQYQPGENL

[11] = target: FGFR1 (UniProt P11362); experiment: as above
[12] = test system: Fer (mouse); experiment: as above
[13] = target: EPHB1 (UniProt P54762); experiment: as above
[14] = target: SHP2-C SH2; experiment: SH2 binding enrichment of the phosphorylated peptide, bacterial display (enrichment ratio); higher = better substrate or ligand; peptides without Tyr show the background
[15] = target: c-Src SH2; experiment: as above
[16] = target: Grb2 SH2 (UniProt P62993); experiment: as above
Chain of Grb2 SH2 (P62993 whole entry, looked up, the tested form may be a part): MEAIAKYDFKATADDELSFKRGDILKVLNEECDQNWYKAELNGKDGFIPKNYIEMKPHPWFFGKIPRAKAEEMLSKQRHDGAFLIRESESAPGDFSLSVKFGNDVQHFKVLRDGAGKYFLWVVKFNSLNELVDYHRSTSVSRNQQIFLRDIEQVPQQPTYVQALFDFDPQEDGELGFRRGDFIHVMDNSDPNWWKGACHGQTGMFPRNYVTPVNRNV
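For SH2 binding enrichment of the phosphorylated peptide, bacterial display in this document: peptide library displayed on the E. coli surface as eCPX fusions, selected cells deep-sequenced, score is each peptide's frequency after selection divided by its frequency in the input.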
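For phosphorylation enrichment, bacterial display in this document: 11-residue human phosphosite peptides and single-mutation variants displayed on the E. coli surface, counted by deep sequencing, each peptide's frequency after selection divided by its frequency in the unselected input library; frequency after pTyr selection over input frequency; kinase dosed for 20-30% of maximal phosphorylation in three min.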

Chain of MERTK (Q12866 whole entry, looked up): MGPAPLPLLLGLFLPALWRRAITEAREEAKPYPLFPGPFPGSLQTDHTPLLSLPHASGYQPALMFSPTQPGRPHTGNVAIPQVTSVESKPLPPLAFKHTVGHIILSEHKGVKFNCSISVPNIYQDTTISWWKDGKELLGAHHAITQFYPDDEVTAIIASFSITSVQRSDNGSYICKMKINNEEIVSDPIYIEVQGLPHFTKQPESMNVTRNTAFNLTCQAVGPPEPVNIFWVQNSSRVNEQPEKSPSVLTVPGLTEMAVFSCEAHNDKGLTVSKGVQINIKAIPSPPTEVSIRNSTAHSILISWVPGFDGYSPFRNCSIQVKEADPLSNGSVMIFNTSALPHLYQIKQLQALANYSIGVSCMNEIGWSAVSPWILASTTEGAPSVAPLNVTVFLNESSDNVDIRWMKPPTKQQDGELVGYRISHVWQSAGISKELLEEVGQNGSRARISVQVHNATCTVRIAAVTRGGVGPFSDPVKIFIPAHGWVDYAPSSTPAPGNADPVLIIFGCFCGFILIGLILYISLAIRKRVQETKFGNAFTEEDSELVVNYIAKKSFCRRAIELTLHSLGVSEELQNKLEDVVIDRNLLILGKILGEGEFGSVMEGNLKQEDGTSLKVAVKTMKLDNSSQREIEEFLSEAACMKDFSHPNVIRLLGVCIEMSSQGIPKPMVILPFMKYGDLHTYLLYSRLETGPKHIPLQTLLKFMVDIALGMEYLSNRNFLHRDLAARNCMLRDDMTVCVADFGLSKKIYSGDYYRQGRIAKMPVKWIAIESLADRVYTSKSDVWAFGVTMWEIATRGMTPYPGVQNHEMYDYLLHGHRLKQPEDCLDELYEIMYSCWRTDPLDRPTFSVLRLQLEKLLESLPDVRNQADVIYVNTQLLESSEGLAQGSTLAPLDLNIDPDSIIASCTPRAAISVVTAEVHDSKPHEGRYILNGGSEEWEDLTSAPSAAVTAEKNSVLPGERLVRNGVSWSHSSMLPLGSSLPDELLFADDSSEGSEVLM

Sequence	phosphorylation enrichment [1]	phosphorylation enrichment [2]	phosphorylation enrichment [3]	phosphorylation enrichment [4]	phosphorylation enrichment [5]	phosphorylation enrichment [6]	phosphorylation enrichment [7]	phosphorylation enrichment [8]	phosphorylation enrichment [9]	phosphorylation enrichment [10]	phosphorylation enrichment [11]	phosphorylation enrichment [12]	phosphorylation enrichment [13]	SH2 binding enrichment [14]	SH2 binding enrichment [15]	SH2 binding enrichment [16]
KVVQEYERVII [NPHS2_Y131]	1.09	0.457	0.435	2.79	0.563	0.719	0.956	0.757	0.801	0.485	0.633	3.84	3.17	0.653	0.564	0.811
KYACSYTPVKA [FLNB_Y708_T703K]	0.689	0.432	0.414	0.417	0.483	0.697	0.758	0.557	0.598	0.387	0.576	0.438	0.473	2.91	1.28	1.05
KYLENYLNRLL [PLD2_Y169]	0.832	0.475	0.478	0.483	0.414	0.577	0.989	0.809	0.859	0.45	0.459	0.609	0.523	1.44	1.27	1.46
LAAAKYKLNVD [SMARCA2_Y1190]	0.444	0.489	0.309	0.336	0.181	0.556	0.766	0.593	0.42	0.262	0.322	0.52	0.426	1.17	0.386	0.812
LAGRYYALRSM [CKB_Y174_K177R]	0.807	0.581	3.63	0.688	0.708	0.763	0.79	0.684	1.66	0.524	0.751	0.5	0.701	2.86	1.73	1.38
LDLPGYCPLRE [CCDC116_Y291]	1.55	0.773	0.767	0.668	1.1	1.36	1.97	1.28	1.64	0.96	0.916	1.09	1.09	0.736	0.611	0.754
LDYNEYFRDLN [HPRT1_Y198]	1.81	0.649	0.519	0.753	0.661	1.28	1.33	1.13	1.68	0.828	1.39	0.555	0.741	0.861	0.645	0.727
LEFNEYFRDLN [HPRT1_Y198_D194E_YF]	2.14	0.809	0.795	1.15	0.828	1.95	1.66	0.805	1.25	0.992	1.09	0.769	1.21	0.743	0.488	0.926
LEIETCRRLLD [KRT12_Y429_Y429C]	1.2	0.415	0.411	0.913	0.759	1.2	1.33	1.01	1.07	0.635	0.722	0.474	0.939	0.64	0.648	0.883
LEQDEYALHSH [HADHB_Y244_R247H]	1.45	0.665	0.578	0.669	0.598	0.805	1.24	1.1	1.2	0.887	0.847	0.642	0.882	0.561	0.452	0.744
LERYIYNRQEF [HLA-DPB1_Y59_E62Q]	1.05	1.24	0.413	0.856	1.32	0.605	1.01	0.415	0.449	0.819	0.624	0.772	0.475	0.703	0.477	0.812
LEVPLYKNGVK [CPS1_Y1069_A1065E]	1.28	0.321	0.625	0.43	0.655	1.11	0.997	0.693	0.643	0.759	0.944	0.66	0.715	0.491	0.472	0.845
LFEDRYLLGPS [ASS1_Y87_T91P_YF]	1.07	0.689	0.58	0.872	0.804	1.12	1.42	1.07	1.73	0.793	0.679	0.634	0.857	0.515	0.552	0.965
LFEDRYLLGTS [ASS1_Y87_YF]	2.21	0.258	0.863	1.98	1.12	2.45	1.8	0.41	0.885	1.29	1.26	1.12	2.81	0.537	0.529	0.918
LFIGQYSGKKE [L1CAM_Y1229_S1224L]	1.41	1.12	0.972	1.11	1.02	1.13	2.22	1.07	1.77	1.07	1.02	0.901	0.984	0.745	0.843	0.924
LFLACYCIGGG [UBD_Y161]	1.22	0.545	0.483	1.12	0.562	1.29	2.71	0.908	1.38	0.72	0.764	0.657	0.803	1.3	0.876	1.02
LFMGDYVGRGY [PPP2CA_Y86_D88G]	1.53	1.53	0.847	1.72	1.75	1.19	1.21	0.953	2.97	1.37	1.17	0.713	2.15	0.596	0.536	0.854

Sequence	phosphorylation enrichment [1]	phosphorylation enrichment [2]	phosphorylation enrichment [3]	phosphorylation enrichment [4]	phosphorylation enrichment [5]	phosphorylation enrichment [6]	phosphorylation enrichment [7]	phosphorylation enrichment [8]	phosphorylation enrichment [9]	phosphorylation enrichment [10]	phosphorylation enrichment [11]	phosphorylation enrichment [12]	phosphorylation enrichment [13]	SH2 binding enrichment [14]	SH2 binding enrichment [15]	SH2 binding enrichment [16]
LFSLGYHQSLW [GANAB_Y396_R400L]	0.827	0.42	0.535	0.702	0.475	0.786	0.986	0.666	0.7	0.475	0.51	0.474	0.627	0.59	0.61	0.98
LGEGSYGKVKE [STK11_Y60]	1.75	0.863	0.887	0.868	0.862	0.783	1.5	1.12	1.58	0.939	1.21	0.574	1.29	0.52	0.571	0.669
LGIDRYHAIVF [NPSR1_Y147_S143G_YF]	2.59	1.11	1.52	1.41	0.942	1.37	1.82	1.31	2.47	0.732	1.55	1.04	1.22	0.689	1.28	0.851
LHNLFYQLEAE [PKP2_Y616_S615F]	2.35	10.4	1.6	1.9	2.2	1.07	2.87	2.03	2.4	8.59	1.02	1.66	1.35	0.909	0.725	1.02
LHSEAYLKYIE [PBRM1_Y1610]	1.16	0.941	0.678	1.2	0.684	0.743	0.994	0.9	1.55	0.831	0.633	0.665	0.753	0.445	0.443	0.664
LIEQAYDNPHE [PRPF8_Y871]	1.12	0.472	0.43	0.824	0.86	0.695	1.16	0.767	0.811	0.645	0.566	0.602	0.638	0.729	5.87	0.828
LKALHYMVQTS [SACS_Y3367]	0.808	0.398	0.385	0.512	0.43	0.459	0.858	0.533	0.653	0.362	0.39	0.428	0.546	0.794	0.721	0.77
LKETGYVVERP [BCLAF1_Y466]	0.768	0.411	0.438	0.278	0.399	0.609	0.807	0.469	0.553	0.434	0.443	0.321	0.494	0.68	0.501	0.862
LKGQVYILGLE [ASS1_Y359_R363L]	1.37	0.633	0.518	0.658	0.985	0.961	1.99	0.759	1.23	0.49	0.467	0.664	0.971	1.02	0.597	0.935
LKLKAYRFSIS [LCT_Y974_V971L]	1.76	1.55	1.15	0.948	0.882	1.21	1.96	2.51	2.76	0.746	0.845	1.26	0.883	0.763	0.502	0.673
LLILEYAKYGS [RET_Y806_V804L]	1.32	0.764	0.392	0.649	0.486	0.869	1.27	1.02	1.5	0.587	0.547	0.58	0.773	1.26	1.31	1.37
LLQEWYMIISR [HUWE1_Y4066_R4063Q]	2.05	1.25	1.1	0.921	1.1	2.45	2.39	1.81	3.08	0.766	1.04	0.821	2.11	1.09	0.623	1.08
LLREWYLPDPF [SIX3_Y225_Q227P_YF]	2.26	0.747	0.583	0.711	0.791	1.36	2.2	1.13	1.4	1.11	1.25	0.871	1.22	1.06	0.863	1.3
LLSISYVGCSL [ADGRD1_Y571_S567L]	1.48	0.69	0.761	0.823	0.824	1.43	2.03	1.45	1.77	0.98	1.1	1.01	0.888	0.571	0.54	0.96
LMVFEYMRHGD [NTRK1_Y591]	0.845	0.34	0.426	0.847	0.931	0.756	1.08	0.457	1	0.604	0.5	0.614	0.646	1.99	1.23	1.67
LNWIFYKDQTG [RS1_Y166_YF]	0.977	0.567	0.468	0.306	0.239	0.932	1.72	0.843	1.29	0.48	0.27	0.54	0.611	0.88	0.657	0.937
